Test results taken from patent US20040253243A1, “Aptamer therapeutics useful in ocular pharmacotherapy” (priority 2003, published 2004).
Strand notation (5' to 3'): a small letter for the sugar, then the base; units joined by * are phosphorothioate-linked, units joined directly phosphodiester-linked; [ ] holds rarer units or linkages, { } end groups; capitals alone tell only the bases. r = 2'-OH (RNA); f = 2'-fluoro

T1: TGFβ2 (Homo sapiens, UniProt P61812)
T1 construct: For bio-chemical characterization of these aptamers, two forms of mature TGFβ2 were generated, native and N-terminal his-tagged versions, in E. coli
T1 sequence (P61812 303-414 limits assumed): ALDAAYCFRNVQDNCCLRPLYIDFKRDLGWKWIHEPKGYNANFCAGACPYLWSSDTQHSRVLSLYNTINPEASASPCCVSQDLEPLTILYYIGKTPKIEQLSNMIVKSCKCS


Legend:
[1] = biological target: T1, TGFβ2; assay: Binding data as performed in MLEC inhibition assay CW115-95, 117, 129; type: cell-based; details: full-length aptamer sequences; experiment 129
Description: MLEC Assay. The mink lung epithelial cell proliferation assay is performed over two days. On day 1:1) media is aspirated off from Mink Lung Epithelial Cells (MLEC); 2) the MLEC are washed with 10 ml 1×PBS; 3) 3 ml Trypsin is added and Trypsinize for 3 min at 37° C.; 4) quench with 10 ml 0.5% FBS media; 5) spin at 1000 rpm for 3.30 min; 6) aspirate off supernatant; 7) resuspend pellet in 10 ml 0.5% FBS media; 8) Count 10 μl cell suspension; 9) adjust cell density to 80,000 cells/ml; 10) add 50 μl of cells/well to black bottomed 96-well plates (4000 cells/well); pipet up and down during plating process to avoid settling of cells and uneven plating; 11) incubate cells at 37° C. in 5% CO2 for 4 hrs to allow adherence of cells; 12) add 25 μl of aptamer (or media, or other test reagent, such as for example, an antibody), preferably the outer wells are not used for treated cells; 13) add 25 μl of TGFβ2 (typically 25 pg/ml); and 14) incubate cells at 37° C. in 5% CO2 overnight.
On day 2:1) mix 20 μl BrdU with 2 ml 0.5% FBS media; 2) add 10 μl of BrdU mixture/well; 3) incubate cells at 37° C. in 5% CO2 for 3 hrs; 4) remove media and blot plates dry on paper towels; 5) add 200 μl/well FixDenat solution and incubate for 30 min at room temperature (RT); 6) remove FixDenat solution and blot plates dry on paper towels; 7) add 100 μl /well anti-BrdU POD solution and incubate for 90 min at RT; 8) remove anti-BrdU POD solution and blot plates dry on paper towels; 9) wash plates 3× with […] washing solution with 5 min RT incubations and blot plates dry on paper towels; 10) add 100 μl /well substrate solution and incubate for 3 min at RT in dark; and 11) read plates using PSP Luciferace 1 program on TopCount (Packard Bioscience Co., Downers Grove, Ill.).

[2] = biological target: T1, TGFβ2; assay: Dot blot binding of doped reselection aptamers to TGFβ2; details: CW128_103
Description: TGFβ2 was serially diluted in DPBS containing 0.2 mg/ml BSA and 0.2 mg/ml tRNA. ^32P-labeled RNA (<20 pM) were incubated with TGFβ2 at room temperature for 30 min. Samples were pipetted with a multichannel pippetor onto a multiwell manifold holding layers of pre-wetted 0.45 micron nitrocellulose, hybond membrane, 3MM filter paper (the order is from top to bottom), aspirated, and washed 3× with DPBS (containing tRNA). All three filters were air dried, exposed to phosphorimager plate, analyzed by ImageQuant.

Row | Molecule | IC50 [1] [nM] | Kd [2] [nM]
1 | GGGAGGACGAUGCGGAGGGAUUAUUAUAGAGUCUGUAUAGCUAUACCCUCAGACGACUCGCCCGA (nucleic acid, aptamer) rGrGrGrArGrGrAfCrGrAfUrGfCrGrGrArGrGrGrAfUfUrAfUfUrAfUrArGrArGfUfCfUrGfUrAfUrArGfCfUrAfUrAfCfCfCfUfCrArGrAfCrGrAfCfUfCrGfCfCfCrGrA | 5.3 | –
2 | GGGAGGACGAUGCGGUGAGAGUAUUAUAGAGUCUGUAUAGCUAUACCACCAGACGACUCGCCCGA (nucleic acid, aptamer) rGrGrGrArGrGrAfCrGrAfUrGfCrGrGfUrGrArGrArGfUrAfUfUrAfUrArGrArGfUfCfUrGfUrAfUrArGfCfUrAfUrAfCfCrAfCfCrArGrAfCrGrAfCfUfCrGfCfCfCrGrA | 8 | –
3 | GGGAGGACGAUGCGGACAGAGUAUUAUAGAGUAUGUAUAGCUAUACUGUCCAGACGACUCGCCCGA (nucleic acid, aptamer) rGrGrGrArGrGrAfCrGrAfUrGfCrGrGrAfCrArGrArGfUrAfUfUrAfUrArGrArGfUrAfUrGfUrAfUrArGfCfUrAfUrAfCfUrGfUfCfCrArGrAfCrGrAfCfUfCrGfCfCfCrGrA | 5.2 | 0.53
4 | GGGAGGACGAUGCGGUGUGAGUAUUAUAGAGUCUGUAUAGCUAUACCACCAGACGACUCGCCCGA (nucleic acid, aptamer) rGrGrGrArGrGrAfCrGrAfUrGfCrGrGfUrGfUrGrArGfUrAfUfUrAfUrArGrArGfUfCfUrGfUrAfUrArGfCfUrAfUrAfCfCrAfCfCrArGrAfCrGrAfCfUfCrGfCfCfCrGrA | 7.4 | –
5 | GGGAGGACGAUGCGGACAGAGUAUUAUAGAGUAUGUAUAGCUAUACUGUCAGACGACUCGCCCGA (nucleic acid, aptamer) rGrGrGrArGrGrAfCrGrAfUrGfCrGrGrAfCrArGrArGfUrAfUfUrAfUrArGrArGfUrAfUrGfUrAfUrArGfCfUrAfUrAfCfUrGfUfCrArGrAfCrGrAfCfUfCrGfCfCfCrGrA | 14.5 | –
6 | GGGAGGACGAUGCGGUGAGAGUAUUAUAGAGUCUGUAUAGCUAUACUCGCCAGACGACUCGCCCGA (nucleic acid, aptamer) rGrGrGrArGrGrAfCrGrAfUrGfCrGrGfUrGrArGrArGfUrAfUfUrAfUrArGrArGfUfCfUrGfUrAfUrArGfCfUrAfUrAfCfUfCrGfCfCrArGrAfCrGrAfCfUfCrGfCfCfCrGrA | 6.5 | –
7 | GGGAGGACGAUGCGGGACAGAGUAUUAUAGAGUAUGUAUAGCUAUACUGUCAGACGACUCGCCCGA (nucleic acid, aptamer) rGrGrGrArGrGrAfCrGrAfUrGfCrGrGrGrAfCrArGrArGfUrAfUfUrAfUrArGrArGfUrAfUrGfUrAfUrArGfCfUrAfUrAfCfUrGfUfCrArGrAfCrGrAfCfUfCrGfCfCfCrGrA | 12.1 | –
8 | GGGAGGACGAUGCGGAUAGAGUAUUAUAGAGUAUGUAUAGCUAUACUAUCAGACGACUCGCCCGA (nucleic acid, aptamer) rGrGrGrArGrGrAfCrGrAfUrGfCrGrGrAfUrArGrArGfUrAfUfUrAfUrArGrArGfUrAfUrGfUrAfUrArGfCfUrAfUrAfCfUrAfUfCrArGrAfCrGrAfCfUfCrGfCfCfCrGrA | 17.9 | –
9 | GGGAGGACGAUGCGGGGAGGUUAUUACAGAGUCUGUAUAGCUGUACUCCCAGACGACUCGCCCGA (nucleic acid) rGrGrGrArGrGrAfCrGrAfUrGfCrGrGrGrGrArGrGfUfUrAfUfUrAfCrArGrArGfUfCfUrGfUrAfUrArGfCfUrGfUrAfCfUfCfCfCrArGrAfCrGrAfCfUfCrGfCfCfCrGrA | – | 0.75
